# Experimental data published in patent US20090075314A1 (DUKE UNIVERSITY, published 2009).
# No end group written: not given here.
# T1: human gastrin/CCK-B receptor (human, UniProt P32239 1-447)
# T1 construct: Permanently expressed with arrestin-GFP in HEK-293 cells (Clone A); also called gastrin receptor; homo sapiens cholecystokinin B receptor
# T1 sequence: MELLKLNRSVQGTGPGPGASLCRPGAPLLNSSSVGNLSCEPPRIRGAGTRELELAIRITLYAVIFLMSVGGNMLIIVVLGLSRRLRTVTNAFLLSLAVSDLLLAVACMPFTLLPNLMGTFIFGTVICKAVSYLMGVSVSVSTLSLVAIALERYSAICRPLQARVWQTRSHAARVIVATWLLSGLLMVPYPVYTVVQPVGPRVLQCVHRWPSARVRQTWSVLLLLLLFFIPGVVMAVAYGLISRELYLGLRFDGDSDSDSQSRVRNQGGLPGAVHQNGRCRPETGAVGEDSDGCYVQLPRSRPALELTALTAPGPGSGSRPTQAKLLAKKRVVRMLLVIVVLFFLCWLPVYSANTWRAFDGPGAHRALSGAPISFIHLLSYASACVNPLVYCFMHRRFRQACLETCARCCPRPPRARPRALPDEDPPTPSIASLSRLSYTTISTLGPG
# What was measured:
# [1] = biological target: T1, human gastrin/CCK-B receptor; test: cell-based or functional assay
# [2] = biological target: T1, human gastrin/CCK-B receptor; test: competitive displacement of [3H]CCK-8 from Clone A by hG17
# Description: (§1) Membrane Preparation/Binding—All steps were performed at 4° C. Membrane binding was performed in triplicate as described in Shetzline et al., J. Biol. Chem. 273:[…] (1998). Membrane fractions were assayed immediately or stored at −80° C. […] Data were analyzed using Graph Pad-Prism.
# (§2) Data are presented as mean±SEM.
# [3] = biological target: T1, human gastrin/CCK-B receptor; test: derived from competitive displacement of [3H]CCK-8 from Clone A by hG17
# Description: as §1, §2
"arrestin-GFP translocation (TI/TF, two hours at 37° C.) [1]",EC50 [2],Kd [3],Molecule
2.4 nM,,,pentagastrin (peptide)
,28 nM,17 nM,"QGPWLEEEEEAYGWMDF-NH2 (peptide, UniProt P01350 76-92, looked up, domain: gastrin-17; also called hGl 7) [synthetic human gastrin-17 peptide (hG17)]"
